{
  "source": "paper PMC8224933",
  "binders": {"B1": {"name": "chemokine (C-X-C motif) receptor 4, P61073 1-352 (receptor)", "chain": "MEGISIYTSDNYTEEMGSGDYDSMKEPCFREENANFNKIFLPTIYSIIFLTGIVGNGLVILVMGYQKKLRSMTDKYRLHLSVADLLFVITLPFWAVDAVANWYFGNFLCKAVHVIYTVNLYSSVLILAFISLDRYLAIVHATNSQRPRKLLAEKVVYVGVWIPALLLTIPDFIFANVSEADDRYICDRFYPNDLWVVVFQFQHIMVGLILPGIVILSCYCIIISKLSHSKGHQKRKALKTTVILILAFFACWLPYYIGISIDSFILLEIIKQGCEFENTVHKWISITEALAFFHCCLNPILYAFLGAKFKTSAQHALTSVSRGSSLKILSKGKRGGHSSVSTESESSSFHSS"}},
  "molecular_target": "atypical chemokine receptor 3 (human (endogenous in hVSMCs)), P25106",
  "sequence (P25106 whole entry)": "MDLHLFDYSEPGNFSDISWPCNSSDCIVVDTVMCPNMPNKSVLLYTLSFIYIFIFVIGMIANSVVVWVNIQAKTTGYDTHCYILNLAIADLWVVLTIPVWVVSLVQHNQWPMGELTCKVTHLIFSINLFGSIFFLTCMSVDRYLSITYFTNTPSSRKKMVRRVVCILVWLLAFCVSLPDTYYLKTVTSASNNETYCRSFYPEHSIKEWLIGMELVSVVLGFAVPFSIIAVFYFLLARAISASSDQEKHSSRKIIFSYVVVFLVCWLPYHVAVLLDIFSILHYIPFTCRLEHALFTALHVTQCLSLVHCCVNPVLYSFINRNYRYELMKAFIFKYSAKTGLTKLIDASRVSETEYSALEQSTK",
  "test": "proximity ligation; Duolink II PLA on hVSMCs fixed with 4% paraformaldehyde; two primary antibodies from differing species (1:500, 37°C, 105 min); control: omission of one primary antibody; PLA signals per cell counted; cells untreated or incubated 72 h with non-targeting, CXCR4, ACKR3 or AVPR1A siRNA",
  "conditions": "remark: other sources report otherwise",
  "data": [
    {"binder": "B1", "values": [
      {"measurement": "increase in PLA signals after AVPR1A siRNA, % of NT siRNA", "value": 59, "unit": "%"}
    ]}
  ]
}
